Laboratory results: patent US20050266528A1

Molecular target: von Willebrand factor (vWF) (UniProt P04275)
Experiment: affinity chromatography, peptide immobilised, linear 0-2 mol/l NaCl gradient, vWF antigen ELISA of fractions

Chain of UniProt P04275 (P04275 764-2813): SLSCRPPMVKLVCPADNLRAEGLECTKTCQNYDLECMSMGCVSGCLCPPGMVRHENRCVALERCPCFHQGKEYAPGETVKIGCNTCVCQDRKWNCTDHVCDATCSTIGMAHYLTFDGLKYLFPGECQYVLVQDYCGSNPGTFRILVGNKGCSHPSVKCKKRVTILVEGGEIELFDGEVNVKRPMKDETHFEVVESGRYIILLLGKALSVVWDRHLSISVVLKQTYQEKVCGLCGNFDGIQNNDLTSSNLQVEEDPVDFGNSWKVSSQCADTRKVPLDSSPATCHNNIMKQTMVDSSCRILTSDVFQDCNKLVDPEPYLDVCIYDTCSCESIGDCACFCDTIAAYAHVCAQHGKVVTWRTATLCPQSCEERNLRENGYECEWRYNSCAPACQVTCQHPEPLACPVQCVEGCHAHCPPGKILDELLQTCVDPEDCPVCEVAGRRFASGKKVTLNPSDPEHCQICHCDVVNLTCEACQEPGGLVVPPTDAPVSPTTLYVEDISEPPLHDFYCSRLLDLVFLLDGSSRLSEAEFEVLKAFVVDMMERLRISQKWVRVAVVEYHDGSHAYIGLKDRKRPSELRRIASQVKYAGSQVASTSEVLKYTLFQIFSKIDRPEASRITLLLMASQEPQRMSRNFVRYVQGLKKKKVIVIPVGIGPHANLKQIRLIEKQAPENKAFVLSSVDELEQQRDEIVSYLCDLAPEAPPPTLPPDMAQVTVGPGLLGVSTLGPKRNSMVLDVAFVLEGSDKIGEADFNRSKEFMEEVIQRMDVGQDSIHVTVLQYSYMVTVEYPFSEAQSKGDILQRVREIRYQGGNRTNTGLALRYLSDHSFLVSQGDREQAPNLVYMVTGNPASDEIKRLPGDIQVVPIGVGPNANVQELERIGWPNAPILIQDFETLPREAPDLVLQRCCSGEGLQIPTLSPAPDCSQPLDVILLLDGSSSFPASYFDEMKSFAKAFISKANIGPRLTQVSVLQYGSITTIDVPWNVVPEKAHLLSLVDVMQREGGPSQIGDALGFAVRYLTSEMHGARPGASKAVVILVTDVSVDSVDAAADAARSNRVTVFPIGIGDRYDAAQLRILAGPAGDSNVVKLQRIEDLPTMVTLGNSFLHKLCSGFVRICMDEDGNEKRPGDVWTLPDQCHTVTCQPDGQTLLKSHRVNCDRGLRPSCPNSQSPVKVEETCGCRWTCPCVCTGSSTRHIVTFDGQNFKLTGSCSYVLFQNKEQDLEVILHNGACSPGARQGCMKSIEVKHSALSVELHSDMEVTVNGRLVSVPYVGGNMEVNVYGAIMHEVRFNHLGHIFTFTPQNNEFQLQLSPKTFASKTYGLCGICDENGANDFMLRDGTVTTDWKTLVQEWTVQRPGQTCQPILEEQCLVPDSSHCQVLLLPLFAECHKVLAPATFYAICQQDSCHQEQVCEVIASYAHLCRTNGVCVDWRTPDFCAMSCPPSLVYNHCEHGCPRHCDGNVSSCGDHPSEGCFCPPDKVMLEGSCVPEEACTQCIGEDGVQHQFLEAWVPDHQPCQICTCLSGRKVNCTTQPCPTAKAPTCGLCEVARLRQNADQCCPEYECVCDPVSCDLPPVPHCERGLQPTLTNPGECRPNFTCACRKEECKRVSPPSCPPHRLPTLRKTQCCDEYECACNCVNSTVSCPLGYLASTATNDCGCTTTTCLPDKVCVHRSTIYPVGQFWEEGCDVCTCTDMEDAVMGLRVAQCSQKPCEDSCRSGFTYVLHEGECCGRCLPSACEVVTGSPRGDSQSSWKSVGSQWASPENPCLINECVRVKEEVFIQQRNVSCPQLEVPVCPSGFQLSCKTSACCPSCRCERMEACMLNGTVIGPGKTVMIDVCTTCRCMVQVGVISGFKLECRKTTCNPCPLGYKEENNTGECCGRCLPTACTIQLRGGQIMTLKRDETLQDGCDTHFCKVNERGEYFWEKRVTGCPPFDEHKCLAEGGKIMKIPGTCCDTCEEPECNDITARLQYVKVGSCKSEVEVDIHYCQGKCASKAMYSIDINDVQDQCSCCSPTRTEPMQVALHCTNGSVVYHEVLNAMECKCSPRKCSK

NaCl concentration at which vWF elutes from the peptide: 100 mmol/L
B1: peptide with the sequence … (peptide)
peptide: AAGGILHLELLV
